# Experimental data from patent US10323078B2, “Isolated peptides and fragments thereof from fibrinogen for use as drugs, particularly in skin inflammatory diseases” (Universite Paris Descartes, priority 2015, dated 2019).
# B1: Bß subunit: sub-unit Bß of human fibrinogen, SEQ ID NO: 1 (protein)
# chain: MKRMVSWSFHKLKTMKHLLLLLLCVFLVKSQGVNDNEEGFFSARGHRPLDKKREEAPSLRPAPPPISGGGYRARPAKAAATQKKVERKAPDAGGCLHADPDLGVLCPTGCQLQEALLQQERPIRNSVDELNNNVEAVSQTSSSSFQYMYLLKDLWQKRQKQVKDNENVVNEYSSELEKHQLYIDETVNSNIPTNLRVLRSILENLRSKIQKLESDVSAQMEYCRTPCTVSCNIPVVSGKECEEIIRKGGETSEMYLIQPDSSVKPYRVYCDMNTENGGWTVIQNRQDGSVDFGRKWDPYKQGFGNVATNTDGKNYCGLPGEYWLGNDKISQLTRMGPTELLIEMEDWKGDKVKAHYGGFTVQNEANKYQISVNKYRGTAGNALMDGASQLMGENRTMTIHNGMFFSTYDRDNDGWLTSDPRKQCSKEDGGGWWYNRCHAANPNGRYYWGGQYTWDMAKHGTDDGVVWMNWKGSWYSMRKMSMKIRPFFPQQ
# modifications: homo sapiens; sub-unit Bbeta of fibrinogen
# B2: γ subunit: γ chain of fibrinogen (protein, UniProt P02679 27-453, looked up)
# Fibrinogen gamma chain: YVATRDNCCILDERFGSYCPTTCGIADFLSTYQTKVDKDLQSLEDILHQVENKTSEVKQLIKAIQLTYNPDESSKPNMIDAATLKSRKMLEEIMKYEASILTHDSSIRYLQEIYNSNNQKIVNLKEKVAQLEAQCQEPCKDTVQIHDITGKDCQDIANKGAKQSGLYFIKPLKANQQFLVYCEIDGSGNGWTVFQKRLDGSVDFKKNWIQYKEGFGHLSPTGTTEFWLGNEKIHLISTQSAIPYALRVELEDWNGRTSTADYAMFKVGPEADKYRLTYAYFAGGDAGDAFDGFDFGDDPSDKFFTSHNGMQFSTWDNDNDKFEGNCAEQDGSGWWMNKCHAGHLNGVYYQGGTYSKASTPNGYDNGIIWATWKTRWYSMKKTTMKIIPFNRLTIGEGQQHHLGGAKQVRPEHPAETEYDSLYPEDDL
# B3: KLESDVSAQMEYCRTPCTVSCNIPVVSGKECEEIIRKGGETSEMYLIQPDSSVKPYRVYCDMNTENGGWTVIQNRQDGSVDFGRKWDPYKQGFGNVATNTDGKNYCGLPGEYWLGNDKISQLTRMGPTELLIEMEDWKGDKVKAHYGGFTVQNE (protein)
# chain: KLESDVSAQMEYCRTPCTVSCNIPVVSGKECEEIIRKGGETSEMYLIQPDSSVKPYRVYCDMNTENGGWTVIQNRQDGSVDFGRKWDPYKQGFGNVATNTDGKNYCGLPGEYWLGNDKISQLTRMGPTELLIEMEDWKGDKVKAHYGGFTVQNE
# modifications: fragment Fg3
# notes: recombinant fragment of Bß sub-unit of human fibrinogen
# B4: PTELLIEMEDWKGDKVKAHYGGFTVQNEANKYQISVNKYRGTAGNALMDGASQLMGENRTMTIHNGMFFSTYDRDNDGWLTSDPRKQCSKEDGGGWWYNRCHAANPNGRYYWGGQYTWDMAKHGTDDGVVWMNWKGSWYSMRKMSMKIRPFFPQ (protein)
# chain: PTELLIEMEDWKGDKVKAHYGGFTVQNEANKYQISVNKYRGTAGNALMDGASQLMGENRTMTIHNGMFFSTYDRDNDGWLTSDPRKQCSKEDGGGWWYNRCHAANPNGRYYWGGQYTWDMAKHGTDDGVVWMNWKGSWYSMRKMSMKIRPFFPQ
# modifications: fragment Fg4
# notes: as for B3
# Key:
# [1] = tested on: HaCaT, NHDK, THP-1, MRC5 and HDF; assay: H2O2 production by cells stimulated with P. acnes, overall statement for the five cell lines; format: cell-based, human; conditions: pretreatment of P. acnes strains with small peptide 2.5 to 20 μM; five cell lines and three strains tested
# Method: FIG. 17: Dose-dependent inhibition of H2O2 production by fibroblast pre-treated by small Fg1-generated peptides and stimulated by P. acnes. MRC5 cell were incubated for 24 h with small peptides Fg1.1 (light gray bar), Fg1.2 (horizontal line bar), Fg1.3 (hatched bar), Fg1.4 (dark gray bar), Fg1.5 (dotted bar) at concentrations ranging from 2.5 to 20 μM. Measurement of hydrogen peroxide production was realized by spectrofluorometry as described in Materials and Methods. Controls experiments were done with unstimulated MRC5 cell (white bar) and MRC5 stimulated with P. acnes (black bar). Data are means±S.D. of three separate experiments. Statistical significance is indicated by * (P<0.05), ** (P<0.01), *** (P<0.001), and **** (P<0.0001), respectively.
# All cells lines (5·10^4 to 10^5 cells/well) were seeded in 96-well plates (Corning Costar, Brumath, France) and treated as previously described. After stimulation, cells were washed three times in PBS and incubated with 100 μl per wells of 5 μM DHE (for determination of O2^●−) or 5 μM H2-DCFDA (for determination of H2O2) for 30 min as described previously and fluorescence intensity was recorded every hour over a period of 5 h. Fluorescence excitation/emission maxima were for DHE: 480/610 nm and for H2-DCFDA: 507/525 nm. At the end of the experiment, the number of adherent cells was evaluated by the crystal violet assay as described below. O2^●−, and H2O2 were assayed by spectrofluorimetry on a Fusion spectrofluorimeter (PackardBell, Paris, France). Levels of ROS were calculated in each sample as follows: reactive oxygen species rate (arbitrary units/min/10^6 cells)=(fluorescence intensity [arbitrary units] at T5h—fluorescence intensity [arbitrary units] at To/300 minutes/number of adherent cells as measured by the crystal violet assay, and were expressed as arbitrary unit (A.U.).
# To assess the efficacy of the small Fg1-related peptide, the production of H2O2 by several cell lines (HaCaT, NHDK, THP-1, MRC5 and HDF) stimulated by three P. acnes strains 6919, RON and PIE was measured, in presence or not with the small peptides. The amount of H2O2 produced is compared to that produced by the stimulated cells with untreated bacteria. Production baseline is obtained by measuring H2O2 on unstimulated cells. The measurement of the production of H2O2 is performed by spectrofluorimetry in the presence of specific fluorochromes directly on the monolayer cell.
# Two sets of experiments have been implemented: • I) The cells are stimulated (18 h at 37° C.) by P. acnes strains previously pretreated with Fg1.1, Fg1.2, Fg1.3, Fg1.4, and Fg1.5 small peptides at the final concentrations ranging from 2.5 to 20 μM for 1 h at 37° C.; • II) The cells are pretreated first with the five small peptides at the final concentrations ranging from 2.5 to 20 μM for 24 h at 37° C. and stimulated (18 h at 37° C.) by P. acnes strains.
# FIG. 17 corresponds to the results obtained with the P. acnes RON strain on the fibroblast MRCS cell line and are representative of the results obtained with all P. acnes and cells lines tested (Table 6).
# Pfg = assay: Western ligand blot with biotinylated Pfg; format: binding, Propionibacterium acnes; conditions: biotinylated Pfg 0.1 μg/ml; for Recognition by biotinylated Pfg after electrophoretic separation of fibrinogen: 10 μg per lane, 10% SDS-PAGE; for Recognition of GST-fused recombinant Bß fibrinogen fragments by biotinylated Pfg: E. coli total protein after IPTG induction, 12.5% SDS-PAGE
# Method: FIG. 5: Binding of P. acnes surface proteins to fibrinogen. (A) Various quantities of human fibrinogen (hFg) and bovine fibrinogen (bFg) were immobilized onto a 96-well polystyrene plate at 4° C. for 18 h and incubated with biotinylated Pfg at 0.1 μg/ml for 2 h at 23° C. Bovine serum albumin (BSA) was used as negative control. Bound material was detected by using the HRP-streptavidin conjugate. Peroxidase activity was measured by using the ABTS substrate at 405 nm. Proteins (10 μg per lane) were separated by 10% SDS-PAGE and detected by (B) Commassie blue staining, and transferred to nitrocellulose membrane and incubated with (C) HRP-streptavidine alone, and (D) biotinylated Pfg (0.1 μg/ml). Lanes 1: molecular weight standards. Lane 2: BSA. Lane 3: hFg. Lane 4: bFg.
# FIG. 8: Cloning of Bß human fibrinogen fragments and binding with Pfg. (A) Cloning and expression of recombinant human Bß fibrinogen fragments Fg1, Fg2, Fg3 and Fg4. Fibrinogen fragments were obtained by RT-PCR and expression plasmids were constructed as described in Materials and Methods. (B) GST-fused proteins were expressed in E. coli, fractionated by 12.5% SDS-PAGE, and detected by Coomassie blue staining (B), and incubated with biotinylated Pfg (0.1 μg/ml) as described in Materials and Methods (C).
# To characterize the interaction between P. acnes and ligands, we used biotinylated molecules in quantitative and qualitative assays. In a first set of assays, ECM ligands (fibrinogen, collagens I, IV, VI and VIII) were used as labelled proteins with biotin. In a second set of assays, P. acnes surface proteins (total extract and purified Pfg) were biotinylated. For quantitative analysis, unlabeled protein were diluted into 50 mM carbonate-bicarbonate, pH 9.6 buffer to yield a protein concentration ranging from 0.01 to 50 μg/ml, and then immobilized to 96-well polystyrene plates at 4° C. overnight. The wells were rinsed three times with 0.2 ml of PBS containing 0.05% Tween-20 (PBS-Tween). Biotinylated proteins (0.01 to 16 μg/ml in PBS-Tween) were added to the wells and incubated at room temperature for 1 h. The wells were rinsed three times with 0.2 ml of PBS-Tween. Peroxidase conjugated to streptavidin (0.5 μg/ml in PBS-Tween) was added and incubated for 30 min at room temperature. After washing, bound peroxidase was detected using the chromogenic peroxidase substrate ABTS. For qualitative analysis, unlabelled protein (10-75 μg per lane) were separated by SDS-PAGE and then transferred to nitrocellulose membranes (0.45 μm pore size), as described previously (Towbin, 1979). Membranes were then saturated overnight at 4° C. in PBS containing 5% BSA, 0.05% Tween-20 (PBT buffer). Binding activity was detected by incubating the membranes with 20 ml of PBT containing biotinylated proteins (0.1 μg/ml) for 2 h at room temperature followed by three washes with PBT. Bound biotinylated proteins were detected by incubating the membrane with peroxidase conjugated to streptavidin (0.5 μg/ml in PBT) for 1 h at room temperature. After washing, bound peroxidase activity was detected using 3,3′-diaminobenzidine in the presence of CoCl2 and H2O2 (Harlow and Lane, 1988).
# Since it was shown that Pfg is recognized by fibrinogen, this ECM ligand was used to analyze the nature of this interaction. First it was analyzed the ability of fibrinogen to be recognized by purified Pfg (FIG. 5). Human and bovine Fg (hFg, bFg) were immobilized to polysterene plate and the binding activity of biotinylated Pfg was measured. […] It has been shown that fibrinogen is a glycoprotein containing both N- and O-linked glycans (Debeire 1985; Reid Townsend 1982; L'Hôte 1996). […] In parallel, deglycosylation was assessed by visualization of a shift in the mobility after electrophoresis separation and Coomassie blue staining (FIG. 6A, lanes 3 and 5) and also by using the RCA-I plant lectin able to recognize ß-linked galactosyl residues in terminal position (FIG. 6C) (Green, 1987). […]
molecule,measurement,setting,value
"APSLRPAPPPISGGGYRARPAKAAATQKKV (fragment Fg1.5) [small peptide generated from Fg1, overlapping Fg1.2 and Fg1.3]",Inhibition of H2O2 production,[1],did not
NEEGFFSARGHRPLDKKREEAPSLRPAPPPISGGG (fragment Fg1.2) [small peptide generated from Fg1],Inhibition of H2O2 production,[1],did not
YRARPAKAAATQKKVERKAPDAGGCLHADPDLGVLC (fragment Fg1.3) [small peptide generated from Fg1],Inhibition of H2O2 production,[1],did not
B1,Recognition by biotinylated Pfg after electrophoretic separation of fibrinogen,Pfg,strongly recognized
B2,Recognition by biotinylated Pfg after electrophoretic separation of fibrinogen,Pfg,No recognition
B3,Recognition of GST-fused recombinant Bß fibrinogen fragments by biotinylated Pfg,Pfg,only Fg1 was recognized
B4,Recognition of GST-fused recombinant Bß fibrinogen fragments by biotinylated Pfg,Pfg,only Fg1 was recognized
